Results reported in publication PMC8759039, “EjRAV1/2 Delay Flowering Through Transcriptional Repression of EjFTs and EjSOC1s in Loquat”.

Experiments:
EjRAV1 [1] = biological target: T1, EjRAV1 (Eriobotrya japonica, UniProt A0A482LZ61 1-403); assay: EMSA; Beyotime EMSA/Gel Shift kit, chemiluminescent biotin detection; buffer, salt, pH and temperature not stated; settings: protein: recombinant; tags: 6xHis (pET28a); label: biotin (ends); blunt
EjRAV2 = EjRAV2 (Eriobotrya japonica, UniProt A0A482LTM5 1-406); assay: as above; settings: protein: recombinant; tags: 6xHis (pET28a); label: biotin (ends); blunt
EjRAV1 [2] = biological target: T1, EjRAV1; assay: competition; excess unlabeled vs biotin P1; Beyotime EMSA/Gel Shift kit, chemiluminescent biotin detection; buffer, salt, pH and temperature not stated; settings: protein: recombinant; tags: 6xHis (pET28a); blunt

T1 sequence (A0A482LZ61 entry or part of it): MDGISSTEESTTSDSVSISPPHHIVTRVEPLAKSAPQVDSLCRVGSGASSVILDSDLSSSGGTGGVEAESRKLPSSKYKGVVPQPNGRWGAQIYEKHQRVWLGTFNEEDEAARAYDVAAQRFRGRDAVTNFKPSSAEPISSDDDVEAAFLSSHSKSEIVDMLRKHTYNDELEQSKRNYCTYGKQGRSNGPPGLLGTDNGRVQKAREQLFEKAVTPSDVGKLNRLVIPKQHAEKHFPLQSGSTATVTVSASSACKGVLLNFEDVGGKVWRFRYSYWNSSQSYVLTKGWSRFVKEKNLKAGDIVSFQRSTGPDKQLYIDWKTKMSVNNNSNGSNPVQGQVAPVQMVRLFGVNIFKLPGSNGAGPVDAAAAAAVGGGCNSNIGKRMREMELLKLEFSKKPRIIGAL
Chain of EjRAV2 (A0A482LTM5 entry or part of it): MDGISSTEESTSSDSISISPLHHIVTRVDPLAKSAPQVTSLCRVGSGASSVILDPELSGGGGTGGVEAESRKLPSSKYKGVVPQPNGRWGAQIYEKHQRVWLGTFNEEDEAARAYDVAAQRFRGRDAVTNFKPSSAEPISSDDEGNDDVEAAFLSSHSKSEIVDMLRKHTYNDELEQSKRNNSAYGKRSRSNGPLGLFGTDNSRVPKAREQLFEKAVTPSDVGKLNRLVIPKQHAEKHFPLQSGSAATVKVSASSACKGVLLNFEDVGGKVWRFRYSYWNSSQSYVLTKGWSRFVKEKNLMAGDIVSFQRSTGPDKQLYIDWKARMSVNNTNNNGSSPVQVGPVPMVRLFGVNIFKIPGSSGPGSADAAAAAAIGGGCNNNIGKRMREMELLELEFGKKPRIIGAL

Binder	binding result (EjRAV1 [1])	binding result (EjRAV2)	binding result (EjRAV1 [2])
EjFT1-P1 (dsDNA) DNA 1: TGGCAATATGACATGCAATGCAACAGAATATAAATAGTTGATTTTG DNA 2: CAAAATCAACTATTTATATTCTGTTGCATTGCATGTCATATTGCCA	binds	no binding	
EjFT1-P1 unlabeled (dsDNA) DNA 1: TGGCAATATGACATGCAATGCAACAGAATATAAATAGTTGATTTTG DNA 2: CAAAATCAACTATTTATATTCTGTTGCATTGCATGTCATATTGCCA			binds
